Measurements taken from patent US9644025.

Molecular target: Human FcγRII, His-tagged domain (R&D Systems, Cat # 1330-CD) (human) (UniProt P12318)
Experiment: SPR (Biacore 3000), His-tagged receptor captured by penta-His antibody on CM5 chip, antibody injected; steady-state RU relative to control

Bapineuzumab (antibody)
Relative Binding Capability (%): 100%
